Here are results for 38 sequences from the supplement of paper PMC7877785.

± gives the uncertainty stated by the source.

This data set is described as follows: self-splicing fitness, log relative to wild type (ln ratio); higher = more splicing; Tetrahymena group I intron in knt gene, E. coli kanamycin selection, DiMSum; sequences stand for … in CUCUCU…GGAGGGAAAAGUUAUCAGGCAUGCACCUGGUAGCUAGUCUUUAAACCAAUAGAUUGCAUCGGUUUAAAAGGCAAGACCGUCAAAUUGCGGGAAAGGGGUCAACAGCCGUUCAGUACCAAGUCUCAGGGGAAACUUUGAGAUGGCCUUGCAAAGGGUAUGGUAAUAAGCUGACGGACAUGGUCCUAACCACGCAGCCAAGUCCUAAGUCAACAGAUCUUCUGUUGAUAUGGAUGCAGUUCACAGACUAAAUGUCGGUCGGGGAAGAUGUAUUCUUCUCAUAAGAUAUAGUCGGACCUCUCCUUAAUGGGAGCUAGCGGAUGAAGUGAUGCAACACUGGAGCCGCUGGGAACUAAUUUGUAUGCGAAAGUAUAUUGAUUAGUUUUGGAGUACUCGUGGUCG
In short, it runs like this: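 The eight P1ex-region nucleotides of an intron in the knt kanamycin-resistance gene on pET-22b(+) were all randomised and the library put into E. coli BL21(DE3). Six replicate transformations were grown overnight at 37°C or 30°C on LB agar with or without 25 μg/mL kanamycin, together with 100 μg/mL carbenicillin, 50 μM IPTG and 0.2% rhamnose. Colonies were pooled and amplicon-sequenced on an Illumina HiSeq 2500. Fitness from DiMSum is the error-weighted combination of wild-type-normalised replicate fold changes, kanamycin over none.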

On to GUUCAGCAAUAUUACGACUG, for which the “self-splicing fitness (ln)” value was -3.57 ± 0.28 (30 °C) and -0.988 ± 0.14 (37 °C).
The matching figures for GUUCAGCAAUAUUACGAGGC: -2.38 ± 0.48 and -1.27 ± 0.2.
The matching figures for GUUCAGCAAUAUUACGAUUG: -0.497 ± 0.093 and -0.904 ± 0.15.
For GUUCAGCAAUAUUACGCACU the same measures were -0.633 ± 0.085 and 0.537 ± 0.12.
For GUUCAGCAAUAUUACGCAGG, the “self-splicing fitness (ln)” value is, setting by setting: (30 °C) -1.35 ± 0.14; (37 °C) -1.28 ± 0.17.
For GUUCAGCAAUAUUACGCGAG the same measures were -0.511 ± 0.11 and -0.381 ± 0.11.
The matching figures for GUUCAGCAAUAUUACGCGAU: -2.39 ± 0.13 and -2.74 ± 0.24.
For GUUCAGCAAUAUUACGCUAG the same measures were -0.585 ± 0.073 and -0.102 ± 0.093.
As to GUUCAGCAAUAUUACGGAUC, the “self-splicing fitness (ln)” value is -1.33 ± 0.098 (30 °C) and -0.366 ± 0.1 (37 °C).
As to GUUCAGCAAUAUUACGGAUG, the “self-splicing fitness (ln)” value was -0.518 ± 0.081 (30 °C) and 0.107 ± 0.085 (37 °C).
The matching figures for GUUCAGCAAUAUUACGGAUU: -0.537 ± 0.092 and 0.247 ± 0.14.
For GUUCAGCAAUAUUACGGCUC the same measures were 0.0792 ± 0.12 and -0.018 ± 0.12.
For GUUCAGCAAUAUUACGGGUC the same measures were -1.11 ± 0.11 and -1.35 ± 0.12.
Consider GUUCAGCAAUAUUACGGGUU, for which the “self-splicing fitness (ln)” value is -1.65 ± 0.089 (30 °C) and -0.108 ± 0.083 (37 °C).
The matching figures for GUUCAGCAAUAUUACGGUGC: -1.34 ± 0.14 and -0.357 ± 0.12.
The matching figures for GUUCAGCAAUAUUACGUAAA: 0.0969 ± 0.077 and 0.494 ± 0.11.
For GUUCAGCAAUAUUACGUAGG the same measures were -0.609 ± 0.082 and 0.163 ± 0.1.
For the sequence GUUCAGCAAUAUUACGUAUA, the “self-splicing fitness (ln)” value was -0.905 ± 0.15 (30 °C) and -1.1 ± 0.17 (37 °C).
As to GUUCAGCAAUAUUACGUAUU, the “self-splicing fitness (ln)” value was -0.531 ± 0.057 (30 °C) and -0.576 ± 0.074 (37 °C).
GUUCAGCAAUAUUACGUCUU: the “self-splicing fitness (ln)” value reads like this: (30 °C) -0.624 ± 0.056; (37 °C) -0.758 ± 0.064.
The matching figures for GUUCAGCAAUAUUACGUGUC: -0.83 ± 0.097 and 0.00179 ± 0.094.
The matching figures for GUUCAGCAAUAUUACGUUCA: -0.741 ± 0.12 and -0.425 ± 0.13.
In the case of GUUGAGCAAUAUUACGACCG, the “self-splicing fitness (ln)” value (37 °C) is -1.77 ± 0.47.
On to GUUGAGCAAUAUUACGAUGC, for which the “self-splicing fitness (ln)” value runs as follows: (30 °C) -2.24 ± 0.49; (37 °C) -2.24 ± 0.45.
The matching figures for GUUGAGCAAUAUUACGCAAG: -2.77 ± 0.21 and -1.79 ± 0.26.
Take GUUGAGCAAUAUUACGCAAU: the “self-splicing fitness (ln)” value was -2.68 ± 0.2 (30 °C) and -3.31 ± 0.29 (37 °C).
For GUUGAGCAAUAUUACGCAGG the same measures were -3.35 ± 0.28 and -1.75 ± 0.37.
With GUUGAGCAAUAUUACGCGCC, where the note is “30 °C”, the “self-splicing fitness (ln)” value was -2.97 ± 0.37.
Consider GUUGAGCAAUAUUACGCUCG, for which the “self-splicing fitness (ln)” value reads like this: (30 °C) -2.49 ± 0.16; (37 °C) -2.34 ± 0.3.
With GUUGAGCAAUAUUACGCUCU, the “self-splicing fitness (ln)” value (30 °C) is -2.49 ± 0.47.
Regarding GUUGAGCAAUAUUACGGGAC, the “self-splicing fitness (ln)” value is -2.69 ± 0.34 (30 °C) and -1.49 ± 0.35 (37 °C).
For GUUGAGCAAUAUUACGGUGU the same measures were -2.22 ± 0.2 and -1.1 ± 0.33.
The matching figures for GUUGAGCAAUAUUACGGUUA: -1.88 ± 0.28 and -2.09 ± 0.24.
The matching figures for GUUGAGCAAUAUUACGUCAC: -3.41 ± 0.43 and -1.86 ± 0.23.
Take GUUGAGCAAUAUUACGUGAG: the “self-splicing fitness (ln)” value runs as follows: (30 °C) -1.93 ± 0.15; (37 °C) -1.42 ± 0.19.
The matching figures for GUUGAGCAAUAUUACGUGUC: -2.34 ± 0.14 and -2.2 ± 0.2.
The matching figures for GUUGAGCAAUAUUACGUUCG: -1.34 ± 0.086 and -1.67 ± 0.11.
The matching figures for GUUGAGCAAUAUUACGUUGU: -3.09 ± 0.23 and -1.68 ± 0.17.
